Marks after values point to notes of the source that are not given here. Positions of bridges follow the written chain, without caps; N, C: chain ends. GL‑2‑branched CH3O‑PEG (40k)‑CH2 = glycerol skeleton-containing 2-branched methoxy-PEG (40 kDa) attached via alkylamine (CH2) linkage; GL‑2‑branched CH3O‑PEG (40k)‑CO = glycerol skeleton-containing 2-branched methoxy-PEG (40 kDa) attached via urethane (CO) linkage
Legend:
[1] = target: T1, AM receptor (Homo sapiens, UniProt O60895+Q16602); experiment: Intracellular cAMP concentration-increasing effect in HEK293 cell line caused to express an AM receptor; format: cell-based; details: for Intracellular cAMP concentration-increasing effect (%): 10^−8 mol/L, 15 minutes, 0.5 mM IBMX; for influence of N-terminal deletion of the peptide moiety on the intracellular cAMP concentration-increasing effect: in words;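 for all read-outs here: cAMP inside confluent receptor-expressing cells quantified by ELISA after 15 min exposure to each peptide at 10^−8 mol/L alongside 0.5 mM IBMX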
T1 construct: expressed in transfected cells; host or cells: HEK293 cell line
Experimental: 10^−8 mol/L of each compound, h.AM (1-52), h.AM (6-52), h.AM (11-52), h.AM (16-52), or h.AM (1-52)-Gly was added to confluent HEK293 cells (cell count: 5×10^4) in the presence of 0.5 mM IBMX and incubated for 15 minutes. Then, the intracellular cAMP concentration in the HEK293 cells of each test zone was measured using an ELISA kit for cAMP measurement (GE Healthcare Japan Corp., #RPN2251).

[2] = tested on: Wistar rat; experiment: Blood pressure-lowering effect, single intravenous dose in rat under anesthesia; format: in vivo; details: 1 nmol/kg, single dose into the vein
Experimental: Each compound prepared in experiments I-1 and II-1 or full-length AM was administered in a single dose of 1 nmol/kg into the vein of each rat under anesthesia, and change in the blood pressure of the rat was observed. Each 11 to 14-week-old male Wistar rat was anesthetized by the inhalation of isoflurane. After tracheotomy, inhalational anesthesia was controlled at an isoflurane concentration of 1.5 to 2.5% and a flow rate of 0.6 to 0.8 L/min. The right jugular vein was isolated from the rat, and a catheter tube corresponding to 26 G was inserted thereto. Next, the left carotid artery was isolated from the rat thus treated, and a catheter tube corresponding to 23 G was inserted thereto. From the catheter tube of the right jugular vein, a physiological saline-heparin solution (physiological saline: 100 mL; heparin: 1000 units) was infused at 2.4 mL/hr. […] The catheter inserted in the carotid artery was connected to a pressure transducer. […] In the diagram, the ordinate depicts a difference obtained by subtracting the average blood pressure before the administration of each drug from the average blood pressure at the time of the administration of each drug.

[3] = Measurement over time of AM concentration in plasma after subcutaneous administration (RIA); format: in vivo; details: 10 nmol/kg subcutaneous single dose, rat
Experimental: 1 day, 7 days and 10 days after the start of the administration, 50 mg of pentobarbital was intraperitoneally administered, and 300 μL of blood was collected each time from the tail vain under anesthesia. Immediately, 300 μg of EDTA-2Na and […] of aprotinin were added to the obtained blood sample, and the mixture was centrifuged under conditions involving 10 minutes and 3000 rpm to obtain plasma. The AM concentration in the plasma of each sample was measured by radioimmunoassay (RIA) (Kitamura K, Ichiki Y, Tanaka M et al., Immunoreactive adrenomedullin in human plasma. FEBS Lett., vol. 341, p. 288-90, 1994).
The compound (37) prepared in experiment III-1 was subcutaneously administered in a single dose of 30 nmol/kg to each rat, and time-dependent change in the concentration in blood of the adrenomedullin derivative was observed. The compound (37) dissolved in physiological saline was subcutaneously administered to each 7- to 8-week-old male Wistar rat (approximately 250 g). 1 day, 2 days, 4 days, 7 days and 9 days after the start of the administration, 50 mg of pentobarbital was intraperitoneally administered, and 300 μL of blood was collected each time from the tail vain under anesthesia. Immediately, 300 μg of EDTA-2Na and […] of aprotinin were added to the obtained blood sample, and the mixture was centrifuged under conditions involving 10 minutes and 3000 rpm to obtain plasma. The AM concentration in the plasma of each sample was measured by RIA.

[4] = percentage with respect to h.AM (1-52)
[5] = percentage with respect to h.AM (6-52)
[6] = percentage with respect to h.AM (16-52)

T1 sequence (Q16602 23-461): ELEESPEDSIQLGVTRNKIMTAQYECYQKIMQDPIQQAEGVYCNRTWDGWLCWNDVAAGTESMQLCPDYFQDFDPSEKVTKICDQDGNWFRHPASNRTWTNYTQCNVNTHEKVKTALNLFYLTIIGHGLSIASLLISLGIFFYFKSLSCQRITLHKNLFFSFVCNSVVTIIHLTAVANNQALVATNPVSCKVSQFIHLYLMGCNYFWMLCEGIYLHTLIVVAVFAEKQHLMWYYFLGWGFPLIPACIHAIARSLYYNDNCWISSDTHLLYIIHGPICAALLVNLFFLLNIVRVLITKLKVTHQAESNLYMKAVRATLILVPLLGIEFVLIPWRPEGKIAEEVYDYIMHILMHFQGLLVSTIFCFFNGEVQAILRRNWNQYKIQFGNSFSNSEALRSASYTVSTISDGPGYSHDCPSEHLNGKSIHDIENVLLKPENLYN
T1 sequence (O60895 43-175): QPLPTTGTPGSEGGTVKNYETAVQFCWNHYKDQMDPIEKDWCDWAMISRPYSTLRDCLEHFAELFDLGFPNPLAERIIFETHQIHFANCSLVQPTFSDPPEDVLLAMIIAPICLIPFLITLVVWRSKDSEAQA

| Substance | Intracellular cAMP concentration-increasing effect (%) [1, 4] [%] | influence of N-terminal deletion of the peptide moiety on the intracellular cAMP concentration-increasing effect [1] | also measured |
| --- | --- | --- | --- |
| CH3O-PEG (5k)-(CH2)2—CH2-^αNH-(h.AM (6-52)) ({CH3O‑PEG (5k)‑(CH2)2—CH2}-NNFQGLRSFGCRFGTCTVQKLAHQIYQFTDKDKDNVAPRSKISPQGY-NH2; disulfide 11-16 (inferred); ends not checked) [Compound (18)] | 90 | suppressed the influence of N-terminal deletion | – |
| CH3O-PEG (5k)-(CH2)2—CH2-^αNH-(h.AM (11-52)) ({CH3O‑PEG (5k)‑(CH2)2—CH2}-LRSFGCRFGTCTVQKLAHQIYQFTDKDKDNVAPRSKISPQGY-NH2; disulfide 6-11 (inferred); ends not checked) [Compound (19)] | 80 | suppressed the influence of N-terminal deletion | – |
| CH3O-PEG (5k)-(CH2)2—CH2-^αNH-(h.AM (16-52)) ({CH3O‑PEG (5k)‑(CH2)2—CH2}-CRFGTCTVQKLAHQIYQFTDKDKDNVAPRSKISPQGY-NH2; disulfide 1-6 (inferred); ends not checked) [Compound (20)] | 39 | suppressed the influence of N-terminal deletion | – |
| CH3O-PEG (5k)-(CH2)5-CO-^αNH-(h.AM (11-52)) ({CH3O‑PEG (5k)‑(CH2)5‑CO}-LRSFGCRFGTCTVQKLAHQIYQFTDKDKDNVAPRSKISPQGY-NH2; disulfide 6-11 (inferred); ends not checked) [Compound (16), amide linkage-type PEG (5k) adrenomedullin derivative, reference compound] | – | significantly decreased | Intracellular cAMP concentration-increasing effect (%) ([1]; percentage with respect to h.AM (11-52)): 1**^) % |
| CH3O-PEG (5k)-(CH2)5—CO-^αNH-(h.AM (6-52)) ({CH3O‑PEG (5k)‑(CH2)5—CO}-NNFQGLRSFGCRFGTCTVQKLAHQIYQFTDKDKDNVAPRSKISPQGY-NH2; disulfide 11-16 (inferred); ends not checked) [Compound (15), amide linkage-type PEG (5k) adrenomedullin derivative, reference compound] | – | significantly decreased | Intracellular cAMP concentration-increasing effect (%) [1, 5]: 101*^) % |
| CH3O-PEG (5k)-(CH2)5—CO-^αNH-(h.AM (16-52)) ({CH3O‑PEG (5k)‑(CH2)5—CO}-CRFGTCTVQKLAHQIYQFTDKDKDNVAPRSKISPQGY-NH2; disulfide 1-6 (inferred); ends not checked) [Compound (17), amide linkage-type PEG (5k) adrenomedullin derivative, reference compound] | – | significantly decreased | Intracellular cAMP concentration-increasing effect (%) [1, 6]: 9***^) % |
| CH3O-PEG (20k)-(CH2)2—CH2-^αNH-(h.AM (1-52)) [Compound (4)] | – | – | decrease in the blood pressure immediately after the administration, as compared to compound (2) [2]: further suppressed; rapidly decreased blood pressure immediately after the administration [2]: not observed |
| CH3O-PEG (20k)-(CH2)2—CH2-^αNH-(h.AM (6-52)) ({CH3O‑PEG (20k)‑(CH2)2—CH2}-NNFQGLRSFGCRFGTCTVQKLAHQIYQFTDKDKDNVAPRSKISPQGY-NH2; disulfide 11-16 (inferred); ends not checked) [Compound (21)] | – | high intracellular cAMP concentration-increasing effect without the influence of the N-terminal deletion | Intracellular cAMP concentration-increasing effect (%) [1, 5]: 98*^) % |
| CH3O-PEG (20k)-(CH2)2—CH2-^αNH-(h.AM (11-52)) ({CH3O‑PEG (20k)‑(CH2)2—CH2}-LRSFGCRFGTCTVQKLAHQIYQFTDKDKDNVAPRSKISPQGY-NH2; disulfide 6-11 (inferred); ends not checked) [Compound (22)] | 97 | high intracellular cAMP concentration-increasing effect without the influence of the N-terminal deletion | – |
| CH3O-PEG (20k)-(CH2)2—CH2-^αNH-(h.AM (16-52)) ({CH3O‑PEG (20k)‑(CH2)2—CH2}-CRFGTCTVQKLAHQIYQFTDKDKDNVAPRSKISPQGY-NH2; disulfide 1-6 (inferred); ends not checked) [Compound (23)] | 97 | high intracellular cAMP concentration-increasing effect without the influence of the N-terminal deletion | – |
| CH3O-PEG (20k)-(CH2)5—CO-^αNH-(h.AM (1-52)) [Compound (2), reference compound] | – | – | rapidly decreased blood pressure immediately after the administration [2]: not observed |
| GL-2-branched CH3O-PEG (20k)-CO-^αNH-(h.AM (6-52)) ({GL‑2‑branched CH3O‑PEG (20k)‑CO}-NNFQGLRSFGCRFGTCTVQKLAHQIYQFTDKDKDNVAPRSKISPQGY-NH2; disulfide 11-16 (inferred); ends not checked) [Compound (30)] | 99 | – | – |
| GL-2-branched CH3O-PEG (20k)-CO-^αNH-(h.AM (11-52)) ({GL‑2‑branched CH3O‑PEG (20k)‑CO}-LRSFGCRFGTCTVQKLAHQIYQFTDKDKDNVAPRSKISPQGY-NH2; disulfide 6-11 (inferred); ends not checked) [Compound (31)] | 104 | – | – |
| GL-2-branched CH3O-PEG (20k)-CO-^αNH-(h.AM (16-52)) ({GL‑2‑branched CH3O‑PEG (20k)‑CO}-CRFGTCTVQKLAHQIYQFTDKDKDNVAPRSKISPQGY-NH2; disulfide 1-6 (inferred); ends not checked) [Compound (32)] | 96 | – | – |
| GL-2-branched CH3O-PEG (40k)-CH2-^αNH-(h.AM (1-52)-Gly) [Compound (36)] | – | – | Intracellular cAMP concentration-increasing effect (%) ([1]; percentage with respect to h.AM (1-52)-Gly): 96****^) % |
| GL-2-branched CH3O-PEG (40k)-CH2-^αNH-(h.AM (6-52)) ({GL‑2‑branched CH3O‑PEG (40k)‑CH2}-NNFQGLRSFGCRFGTCTVQKLAHQIYQFTDKDKDNVAPRSKISPQGY-NH2; disulfide 11-16 (inferred); ends not checked) [Compound (29)] | 77 | – | – |
| GL-2-branched CH3O-PEG (40k)-CH2-^αNH-(h.AM (16-52)) ({GL‑2‑branched CH3O‑PEG (40k)‑CH2}-CRFGTCTVQKLAHQIYQFTDKDKDNVAPRSKISPQGY-NH2; disulfide 1-6 (inferred); ends not checked) [Compound (24)] | – | – | Intracellular cAMP concentration-increasing effect (%) [1, 6]: 93***^) % |
| GL-2-branched CH3O-PEG (40k)-CO-^αNH-(h.AM (1-52)) [Compound (27)] | – | – | level at time molar at 24 h ([3]; 1 day later): ≥ 3.6 nM; level at time molar at 24 h ([3]; 7 days later): ≥ 0.12 nM |
| GL-2-branched CH3O-PEG (40k)-CO-^αNH-(h.AM (16-52)) ({GL‑2‑branched CH3O‑PEG (40k)‑CO}-CRFGTCTVQKLAHQIYQFTDKDKDNVAPRSKISPQGY-NH2; disulfide 1-6 (inferred); ends not checked) [Compound (33)] | 61 | – | – |
| GL-4-branched CH3O-PEG (40k)-CO-^αNH-(h.AM (6-52)) ({GL‑4‑branched CH3O‑PEG (40k)‑CO}-NNFQGLRSFGCRFGTCTVQKLAHQIYQFTDKDKDNVAPRSKISPQGY-NH2; disulfide 11-16 (inferred); ends not checked) [Compound (34)] | 83 | – | – |
